Experimental findings from paper PMC8130932 (PLoS Pathogens, 2021) are described below.

The target of assay [1] is SARS-CoV-2 nucleocapsid, recombinant (SARS-CoV-2, reference sequence, UniProt P0DTC9). Kind of assay: ELISA.
Assay [2] has as its target T1, SARS nucleocapsid, recombinant (SARS-CoV, reference sequence (strain …, UniProt P59595)).
T1 construct: source: bought: Sino Biologicals, baculovirus-insect cells
Kind of assay: ELISA.

The target in assay [3] is SARS-CoV-2 spike glycoprotein of wild-type virus, in infected Vero E6 cells (SARS-CoV-2 …, UniProt P0DTC2). Description: cell-based or functional assay.
The target of assay [4] is T2, SARS-CoV-2 RBD (amino acids 340-538) on MDCK-SIAT1 cells (SARS-CoV-2 (so in the source)).
T2 construct: also called MDCK-RBD; source: MDCK-SIAT1, stably transduced (lentiviral vector), on the cell surface
Description: flow cytometry on cells. The note with it: one partner purified. A general note: Flow cytometry measures light scatter and fluorescence of single cells or particles in a stream.

Assay [5] has as its target T3, SARS-CoV-2 NTD on MDCK-SIAT1 cells (SARS-CoV-2 (so in the source)).
T3 construct: also called MDCK-NTD
Kind of assay: flow cytometry on cells. The following applies: one partner purified.

For assay [6], the target named is T4, SARS-CoV-2 spike S2 subunit, recombinant (SARS-CoV-2, reference sequence, UniProt P0DTC2).
T4 construct: source: bought: Sino Biologicals, baculovirus-insect cells
Kind of assay: ELISA. In general terms: ELISA stands for enzyme-linked immunosorbent assay.

The target of assay [7] is T5, Human coronavirus OC43 spike glycoprotein S1+S2 extracellular domain (Human coronavirus OC43, AVR40344.1 (by …)).
T5 construct: source: bought: Sino Biologicals
T5 chain: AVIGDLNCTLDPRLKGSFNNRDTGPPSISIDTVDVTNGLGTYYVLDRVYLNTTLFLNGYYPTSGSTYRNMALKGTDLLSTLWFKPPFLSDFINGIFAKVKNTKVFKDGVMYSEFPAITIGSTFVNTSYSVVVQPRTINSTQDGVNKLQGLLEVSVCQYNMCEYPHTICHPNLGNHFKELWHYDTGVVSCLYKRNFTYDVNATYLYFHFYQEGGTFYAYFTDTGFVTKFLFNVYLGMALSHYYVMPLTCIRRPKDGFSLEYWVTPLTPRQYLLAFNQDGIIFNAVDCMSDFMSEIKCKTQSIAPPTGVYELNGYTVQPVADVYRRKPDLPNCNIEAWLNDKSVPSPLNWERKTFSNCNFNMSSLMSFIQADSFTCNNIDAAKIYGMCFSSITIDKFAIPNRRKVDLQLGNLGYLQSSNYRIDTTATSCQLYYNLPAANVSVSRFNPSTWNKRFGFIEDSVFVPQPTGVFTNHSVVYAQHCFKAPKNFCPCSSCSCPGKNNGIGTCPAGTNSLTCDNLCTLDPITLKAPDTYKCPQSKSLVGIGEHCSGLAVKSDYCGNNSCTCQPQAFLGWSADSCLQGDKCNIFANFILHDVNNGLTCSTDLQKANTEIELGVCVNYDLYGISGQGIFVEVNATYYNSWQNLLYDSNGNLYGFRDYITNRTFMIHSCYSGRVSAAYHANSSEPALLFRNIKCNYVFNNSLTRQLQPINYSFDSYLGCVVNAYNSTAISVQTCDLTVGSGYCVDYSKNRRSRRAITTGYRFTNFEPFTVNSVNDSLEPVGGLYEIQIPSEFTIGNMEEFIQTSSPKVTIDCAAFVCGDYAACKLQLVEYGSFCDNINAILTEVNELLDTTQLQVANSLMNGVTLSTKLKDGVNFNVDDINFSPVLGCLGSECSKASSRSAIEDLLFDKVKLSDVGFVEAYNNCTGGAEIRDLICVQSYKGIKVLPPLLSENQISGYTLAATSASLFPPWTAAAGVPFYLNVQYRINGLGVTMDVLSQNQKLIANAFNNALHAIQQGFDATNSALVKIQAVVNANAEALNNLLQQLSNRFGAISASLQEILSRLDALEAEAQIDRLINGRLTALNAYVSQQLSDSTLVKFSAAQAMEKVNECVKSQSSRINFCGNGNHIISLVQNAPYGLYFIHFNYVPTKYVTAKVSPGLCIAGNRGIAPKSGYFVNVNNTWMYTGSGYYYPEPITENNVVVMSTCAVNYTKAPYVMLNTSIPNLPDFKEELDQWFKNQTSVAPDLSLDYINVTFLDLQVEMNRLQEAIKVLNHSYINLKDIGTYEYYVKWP
Kind of assay: ELISA.

Assay [8] deals with T6, MERS spike glycoprotein S1+S2 extracellular domain (MERS coronavirus, isolate EMC/2012 (by …, UniProt K0BRG7)).
T6 construct: source: bought: Sino Biologicals, baculovirus-insect cells
Description: ELISA.

B1: EY 2A (antibody, V domains shown)
VH: QVQLVESGAEVTKPGDSLIISCKGSGYAFTQYWIGWVRQKPGKGLEWMAMVYPDSSAVFAGGASGVRYRPPFQGQVTISADTSVNTAYLQWDSLKASDTAMYYCVRQERGSNTWYAGNSWGQGTLVTVSS
VL: DIVMTQSPLSLPVSPGEPASISCRSSQSLLHTDAYNYLDWYLQKPGQSPQLLIYLGSTRASGVPDRFSGSGSGTDFTLKISSVKAEDVGVYYCMQALQTPGTFGQGTKLEIK
notes: source: HEK293T, transfected; culture supernatant or purified
Turning to B1, the OD450 was found to be 1.28 OD450 in assay [1] and 1.13 OD450 in assay [2].

B2: EY 3B (antibody, V domains shown)
VH: EVQLVESGAEVTKPGESLIISCKGSGYAFTQYWIGWVRQKPGKGLEWMAMVYPDSSAVFAGGASGVRYRPPFQGQVTISADTSVNTAYLQWDSLKASDTAMYYCVRQERGSNTWYAGNSWGQGTLVTVFS
VL: EIVLTQSPLSLPVSPGEPASISCRSSQSLLHTDAYNYLDWYLQKPGQSPQLLIYLGSTRASGVPDRFSGSGSGTDFTLKISSVKAEDVGVYYCMQALQTPGTFGQGTKVEIR
notes: as for B1
For the molecule B2, the OD450 in assay [1] was determined as 1.22 OD450; in assay [2], 1 OD450.

B3: FD 11E (antibody, V domains shown)
VH: EVQLVESGGGLVKPGGSLRLSCAASGFTFSSYSMNWVRQAPGKGLEWVSSISSSSSYIYYADSVKGRFTISRDNAKNSLYLQMNSLRAEDTAVYYCASLAAAGPETYYYYGMDVWGQGTMVTVSS
VL: not shown
notes: as for B1
In the case of B3, in assay [3], the “PRNT EC50, wild-type SARS-CoV-2 (hCoV-19/England/02/2020) on Vero E6 cells” value (“PRNT EC50” for short) amounted to 70 nM. Besides, the binding result in assay [4] and in assay [5] was “no binding” throughout.

B4: FD 1E (antibody, V domains shown)
VH: EVQLLESGGGLVKPGGSLRLSCAASGFTFSSYSMNWVRQAPGKGLEWVSSISSSSSYIYYADSVKGRFTISRDNAKNSLYLQMNSLRAEDTAVYYCASLAAAGPETYYYYGMDVWGQGTMVTVSS
VL: not shown
notes: as for B1
For the molecule B4, in assay [3], the “PRNT EC50” value was determined as 110 nM.

B5: EW 9C (antibody, V domains shown)
VH: EVQLVESGGGVVQPGASLRLSCVASGFTFNNFGFHWVRQAPGKGLEWLAVISYEGSKTYYAESLKGRFTISRDTSKNTVYLQMNSLRAEDTAVYYCARATSIFWFGEGRNWFDPWGQGTMVTVSS
VL: EIVLTQSPGTVSLSAGERATLSCRASQNVGTDLAWYVQRPGQAPRLLIYDTSNKATGIPARFSGRGSGTDFTLTIDSLEPEDFAVYYCQQRSNWPLTFGGGTKVEIR
notes: as for B1
Regarding B5, the OD450 in assay [6] turned out to be 1.17 OD450; in assay [7], 1.82 OD450. In addition, in assay [3], the “PRNT EC50” value is 133 nM.

B6: EZ 7B (antibody, V domains shown)
VH: EVQLVESSPGLVKPSETLSLTCTVSGGSISSYYWSWIRQPPGKGLEWIGYIYYSGSTNYNPSLKSRVTISVDTSKNQFSLKLSSVTAADTAVYYCARRVFGPVLPSKLGGSYWGGGAFDIWGQGTMVTVSS
VL: not shown
notes: as for B1
For the molecule B6, in assay [1], the OD450 amounted to 1.01 OD450.

B7: FJ 1C (antibody, V domains shown)
VH: QVQLQESGPGLVKPSETLSLTCTVSGYSISSGYYWGWIRQPPGKGLEWIGSIYHSGSTYYNPSLKSRVTISVDTSKNQFSLKLSSVTAADTAVYYCARDKALLWFGELFTNLFDYWGQGTLVTVSS
VL: QSALTQPASVSGSPGQSITISCTGTSSDVGGYNYVSWYQQHPGKAPKLMIYEVSNRPSGVSNRFSGSKSGNTASLTISGLQAEDEANYYCSSYTSSSTLVFGGGTKLTVL
notes: as for B1
Regarding B7, in assay [3], the “PRNT EC50” value came to 55.5 nM. Besides, the figures for the binding result in assay [4] and in assay [5] were “no binding” and “binds”, respectively.

B8: FD 6D (antibody, V domains shown)
VH: EVQLVESGPGLVKVSETLFLTCTVSGYSIGSGNYWGWIRQPPGKVLEWIGSTYHSGTTYYNPSLKSRVTISVDSSKNQFSLKLTSVTAADTAVYYCARDRLLAVHYDSRGYLVDYWGQGTMVTVSS
VL: AIRMTQSPDSLAVSLGERATINCKSSQSIFYSSNNKNYLAWYQHKPGQPPKLLIYWASTRESGVPDRFSGSGSGTDFTLTISSLQAEDVAIYYCQQYYDIPRTFGQGTKVEIR
notes: as for B1
In the case of B8, the OD450 worked out at 1.73 OD450 in assay [1] and 1.19 OD450 in assay [2].

B9: FJ 4E (antibody, V domains shown)
VH: QVQLVESGPGLVKPSETLSLTCSVSGGSISSGTYYWSWIRQQPGKGLEWIGYIYNTGRPYYNPFLKSRITISVDSSKNQFSLKLTSVTAADTAVYYCARDEYDSSDSGIQGHWFDPWGQGTLVTVSS
VL: AIRMTQSPSSLSASVGDRVTITCRTSQNINSFLNWYQQKPGKGPNLLIYGAFTLQSGVPSRFSGSGSGTDFTLTISSLQPEDFATYFCQQSYSTPWTFGQGTKVEIK
notes: as for B1
Take B9: the OD450 in assay [6] amounted to 0.91 OD450; in assay [8], 1.08 OD450; in assay [7], 1.68 OD450. Moreover, the binding result in assay [4] and in assay [5] was “no binding” in each case.

B10: EZ 4A (antibody, V domains shown)
VH: EVQLVQSGAEVKKPGESLKISCKGSGYSFTSYWIGWVRQMPGKGLEWMGIIYPGDSDTRYSPSFQGQVTISADKSISTAYLQWSSLKASDTAMYYCARSPIAADLFDYWGQGTLVTVSS
VL: not shown
notes: as for B1
For B10, the OD450 in assay [1] was 1.03 OD450.

B11: EZ 11A (antibody, V domains shown)
VH: EVQLVESGGGLVQPGGSLRLSCAASGFTFSSYWMSWVRQAPGKGLEWVANIKQDGSEKYYVDSVKGRFTISRDNAKNSLYLQMNSLRAEDTAVYYCARDDYSGSYYWEFDYWGQGTLVTVSS
VL: QPVLTQSPSASASLGASVKLTCTLSSGHSSYAIAWHQQQPEKGPRYLMKLNSDGSHSKGDGIPDRFSGSSSGAERYLTISSLQSEDEADYYCQTWGTGIWVFGGGTKLTVL
notes: as for B1
Take B11: the OD450 in assay [1] turned out to be 1.29 OD450; in assay [2], 1.31 OD450.

B12: EZ 4C-1 (antibody, V domains shown)
VH: EVQLVESGPGLVKPSETLSLTCTVSGGSVSSGNNYWSWIRQPPGKALEWIGYIYYSGSTKYNPSLKSRVTMSVGTSKNQFSLKVNSVTAADTAMYYCARAPSAPFGGLFDWILPKGINNWGQGTLVTVSS
VL: EIVLTQSPSTLSASVGDRVTITCRTSQSIRSWLAWYQQKPGKAPKLLIFEASTLESGVPERFSGSGSGAEFTLTISSLQPDDFATYYCQQYNGYSYSFGQGTKVEIR
notes: as for B1
Turning to B12, the OD450 in assay [1] was 0.6 OD450.

B13: FD 10A (antibody, V domains shown)
VH: EVQLVESGGGLVQPGGSLRLSCAASGFTFSSYWMHWVRQAPGKGLVWVSRINSDGSSTSYADSVKGRFTISRDNAKNTLYLQMNSLRAEDTAVYYCANMAFDIWGQGTMVTVSS
VL: not shown
notes: as for B1
As to B13, the OD450 in assay [6] is 1.32 OD450. The “PRNT EC50” value in assay [3] came out at 111 nM. Also, the binding result in assay [4] and in assay [5] was “no binding” each time.

B14: FN 2C (antibody, V domains shown)
VH: EVQLLESGGGVVQPGRSLRLSCAASGFNFNNYGMHWVRQAPGKGLEWVATISYEGSKKFYVDSVKGRFTISKDNSKNTLYLQMNSLRVDDTAFYYCAKRREIFWLGEPPLSDAFDFWGQGTMVTVSS
VL: QSVLTQPPSVSGAPGQRVTISCTGSGSNIGAGYDVHWYQFLPGTAPQLLIYGNNNRPSGVPDRFSGSKSGTSASLAITGLQAEDEADYYCQSYDSSLSGSVFGGGTKLTVL
notes: as for B1
Turning to B14, the OD450 turned out to be 1.15 OD450 in assay [6] and 2.2 OD450 in assay [7].
